Results as given in patent publication US20110251266, “APTAMER FOR NGF AND USE THEREOF” (Shionogi & Co., Ltd., published 2011).

B1: SEQ1 aptamer (ssRNA)
RNA: GGGAAGCCUGUGGAGCUGCAGGAUGAAAAAAACCCAAAAACAAAGACAAUGAUUGAGUAGCAUUGUCACCAACAACUGG
modifications: 2'-F all pyrimidines
B2: SEQ3 aptamer (ssRNA)
RNA: GGGAAGCCUGUGGAGCUGCAGGAUGAAAAAAACCCAAAAUAAGUAGAAAUGACAGAAUGGCAUUGUCACCAACAACUGG
modifications: 2'-F all pyrimidines
B3: SEQ4 aptamer (ssRNA)
RNA: GGGAAGCCUGUGGAGCUGCAGGAUGAAAAAAACCCAAAUAUGACAAAUAAAACGGCAACGCAUUGUCACCAACAACUGG
modifications: 2'-F all pyrimidines
B4: SEQ5 aptamer (ssRNA)
RNA: GGGAAGCCUGUGGAGCUGCUUAAACAAGCAAGUGAAAAAAACCACAGCAAAUGUAAAAAGCAUUGUCACCAACAACUGG
modifications: 2'-F all pyrimidines
B5: SEQ6 aptamer (ssRNA)
RNA: GGGAAGCCUGUGGAGCUGCAGGAUGAAAAAAACCCAAAAUUAAAUAAAAAAUAGACGGUGCAUUGUCACCAACAACUGG
modifications: 2'-F all pyrimidines
B6: SEQ7 aptamer (ssRNA)
RNA: GGGAAGCCUGUGGAGCUGCAGGAUGAAAAAAACCCAAAAUUAGAUAAAAAAUAGACGGUGCAUUGUCACCAACAACUGG
modifications: 2'-F all pyrimidines
B7: SEQ8 aptamer (ssRNA)
RNA: GGGAAGCCUGUGGAGCUGCGGAUAAAAAUAGAGUUUGAUAAACACCUGUAUUAAAACCGCAUUGUCACCAACAACUGG
modifications: 2'-F all pyrimidines
B8: SEQ9 aptamer (ssRNA)
RNA: GGGAAGCCUGUGGAGCUGCUCCACAAGGAUGAAAAAAACCCAAAUAAUAUAUUUAAUCAGCAUUGUCACCAACAACUGG
modifications: 2'-F all pyrimidines
B9: SEQ12 aptamer (ssRNA)
RNA: GGGAAGCCUGUGGAGCUGCGAAACAGUGAAACAAACCACAGACUGAGAAAGCAGUAACAGCAUUGUCACCAACAACUGG
modifications: 2'-F all pyrimidines
B10: SEQ84 aptamer (ssRNA)
RNA: GGGAGAACUUCGACCAGAAGUGAAAGAAACUCCCGAUGAAAGAUGUAACAAACCAUAUGUGCGCAUACAUGGAUCCUC
modifications: 2'-F all pyrimidines
B11: SEQ61 aptamer (ssRNA)
RNA: GGGAGAACUUCGACCAGAAGGUCGUAACGAAUAAAACUCCUGCACAAAAAUAUGUGCGCAUACAUGGAUCCUCA
modifications: 2'-F all pyrimidines
B12: SEQ65 aptamer (ssRNA)
RNA: GGGAGAACUUCGACCAGAAGUGUGAAAAAAACCCAAAUCGAGCACAAAAUUAUGUGCGCAUACAUGGAUCCUCA
modifications: 2'-F all pyrimidines
B13: SEQ30(1) (ssRNA)
RNA: GGGAUAAAAAUAGAGUUUGAUAAACACCUGUAUUAAAACCC
modifications: 2'-F all pyrimidines; 2'-OMe at a12,g13,a14,g15,g19,a20,a22,a23,a24,a26; idT at 5' and 3' ends
B14: SEQ32(1) (ssRNA)
RNA: UGUGGAGCUGCUUAAACAAGCAAGUGAAAAAAACCACA
modifications: 2'-F all pyrimidines; 2'-OMe at g10,a14,a15,a16,a18,a19,g20,a22,a23,g24; idT at 5' and 3' ends
B15: SEQ35(2) (ssRNA)
RNA: GGGAAGCCUGUGGAGCUGCAGGAUGAAAAAAACCCAAA
modifications: 2'-F all pyrimidines; 2'-OMe at a4,a5,g6,g10,g18,a20,g21,g22,a29,a30,a31,a32; idT at 5' and 3' ends

Target: T1, beta-NGF (nerve growth factor) (Homo sapiens, UniProt P01138 P01138:122-241)
Assay: SPR; NGF-TrkA and NGF-P75; no PC-12 inhibition
Details: tags: R&D Systems human NGF; chain copies: 2
Experimental: (§1) As directed in BIAcore Company's protocol, Protein A (21181, PIERCE) was immobilized on a CM5 sensor chip. About 1100 RU of human Trk A-Fc fused with the Fc portion of IgG (175-TK, R&D systems) was immobilized thereon. As the analyte, a mixture of NGF (0.1 μM) and each aptamer (0.33 μM) was injected after being allowed to stand for 30 minutes. […] When NGF binds stronger to a receptor than an aptamer, the aptamer may be removed and NGF may bind to the receptor. […] Using the binding amount of NGF and NGF receptor without an aptamer as 100, the binding amount of NGF and NGF receptor added with an aptamer was determined as a correction value. Here, the binding amount is the RU value at the peak top of the sensorgram of BIAcore (RU value immediately after completion of NGF injection). […] A similar experiment was performed for another receptor P75 (p75-Fc; R&D systems).

T1 sequence (P01138 122-241, one chain of several): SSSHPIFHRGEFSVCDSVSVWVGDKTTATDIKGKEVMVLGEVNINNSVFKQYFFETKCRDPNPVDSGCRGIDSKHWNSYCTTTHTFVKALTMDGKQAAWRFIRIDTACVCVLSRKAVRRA

With GGGAGCUGCUUAAACAAGCAAGUGAAAAAAACCC (ssRNA, 2'-F pyrimidines) [SEQ31 aptamer] as the binder, how does the activity read?
Its activity is no less than 60 % inhibition.

For UGUGGAGCUGCUAAACAGCAAGUGAAAAAAACCACA (ssRNA, 2'-F pyrimidines) [SEQ33 aptamer], which activity is on record?
The activity was no less than 60 % inhibition.

With GUGGAGCUGUUAAACAACAAGUGAAAAAAACCAC (ssRNA, 2'-F pyrimidines) [SEQ34 aptamer] as the binder, how does the activity read?
The activity was no less than 60 % inhibition.

For GGGAAGCCUGUGGAGCUGCAGGAUGAAAAAAACCC (ssRNA, 2'-F pyrimidines) [SEQ36 aptamer], which activity is on record?
Its activity is no less than 60 % inhibition.

Which activity does the source give for GGGAAGCCGUGGAGCUGCGGAUGAAAAAAACCC (ssRNA, 2'-F pyrimidines) [SEQ88 aptamer] here?
The activity was no less than 60 % inhibition.

How did the activity turn out when GGGAAGCCUGUAAACAGCAGGAUGAAAAAAACCC (ssRNA, 2'-F pyrimidines) [SEQ89 aptamer] was run?
Its activity is no less than 60 % inhibition.

For GGGAGCCUGUAAACAGCAGGUGAAAAAAACCC (ssRNA, 2'-F pyrimidines) [SEQ90 aptamer], which activity is on record?
The activity was no less than 60 % inhibition.

With GGAGCUGCCUACACUUUAGUAUGACAAACCUAGAGUGUAAAUGCUUC (ssRNA, 2'-F pyrimidines) [SEQ25 aptamer] as the binder, how does the activity read?
The activity was no less than 60 % inhibition.

GGGCUGUGGAGCUGCUUAAACAAGCAAGUGAAAAAAACCACAGCCC (ssRNA, 2'-F pyrimidines) [SEQ26 aptamer] was tested. Which activity did it give?
Its activity is no less than 60 % inhibition.

Which activity does the source give for GGGAAGCCUGUGGAGCUGCAGGAUGAAAAAAACCCAAAAUUAAAU (ssRNA, 2'-F pyrimidines) [SEQ27 aptamer] here?
Its activity is no less than 60 % inhibition.

Target: T1, beta-NGF (nerve growth factor)
Assay: SPR; blocks NGF-TrkA and NGF-P75; PC-12 neurite inhibition + (Table 2)
Details: tags: R&D Systems; chain copies: 2
Experimental: as §1

B1 was tested. Which activity did it give?
Its activity is no less than 60 % inhibition.

With B2 as the binder, how does the activity read?
The activity was no less than 60 % inhibition.

For B3, which activity is on record?
The activity was no less than 60 % inhibition.

With B4 as the binder, how does the activity read?
Its activity is no less than 60 % inhibition.

How did the activity turn out when B5 was run?
Its activity is no less than 60 % inhibition.

B6 was tested. Which activity did it give?
Its activity is no less than 60 % inhibition.

Which activity does the source give for B7 here?
The activity was no less than 60 % inhibition.

With B8 as the binder, how does the activity read?
Its activity is no less than 60 % inhibition.

How did the activity turn out when B9 was run?
Its activity is no less than 60 % inhibition.

GGGAUAAAAAUAGAGUUUGAUAAACACCUGUAUUAAAACCC (ssRNA, 2'-F all pyrimidines) [SEQ30 aptamer] was tested. Which activity did it give?
The activity was no less than 60 % inhibition.

How did the activity turn out when UGUGGAGCUGCUUAAACAAGCAAGUGAAAAAAACCACA (ssRNA, 2'-F all pyrimidines) [SEQ32 aptamer] was run?
Its activity is no less than 60 % inhibition.

Target: T1, beta-NGF (nerve growth factor)
Assay: SPR; blocks NGF-TrkA and NGF-P75
Details: tags: R&D Systems; chain copies: 2
Experimental: as §1

B10 was tested. Which activity did it give?
The activity was no less than 60 % inhibition.

With B11 as the binder, how does the activity read?
Its activity is no less than 60 % inhibition.

With B12 as the binder, how does the activity read?
Its activity is no less than 60 % inhibition.

Target: T1, beta-NGF (nerve growth factor)
Assay: cell_activity; PC-12 neurite outgrowth, 500 nM aptamer
Details: tags: R&D Systems; chain copies: 2
Experimental: The physiological activity of aptamer was evaluated by a neurite outgrowth suppressive experiment using PC-12 cells. PC-12 cell, which is a cell line derived from rat adrenal gland pheochromocytoma, is a model cell of the nervous system, elongates neurite by NGF stimulation, and differentiates like nerve cells. Whether or not an aptamer inhibits the neurite outgrowth was evaluated. PC-12 cells were seeded on a 96 well flat-bottom plate coated with collagen, and a mixed solution of NGF (final concentration 25 ng/ml, or 1.9 nM) prereacted for 1 hr at 37° C. and an aptamer (final concentration 500 nM) was added to start the cell culture. Thereafter, the same amount of the aptamer was added twice every 24 hr and the level of neurite outgrowth was observed and evaluated on day 3 with a microscope. For evaluation, scores 0-3 were used, where score 0 is no neurite outgrowth, score 1 is slight neurite outgrowth, score 2 is neurite outgrowth to the nearby cell, and score 3 is markedly reticulated neurite outgrowth. The system wherein PC-12 cells were cultivated for 3 days with the addition of NGF alone was taken as a negative control, and system capable wherein the cells for 3 days without addition of NGF was taken as a positive control. […] Setting the score of the negative control as inhibitory activity 0%, and the score of the positive control as inhibitory activity 100%, the inhibitory activity (%) of the aptamer was calculated. An inhibitory activity of not less than 50% is shown with +, and that of less than 50% is shown with −.

B13 was tested. Which activity did it give?
The activity was no less than 50 % inhibition.

Which activity does the source give for GGGAUAAAAAUAGAGUUUGAUAAACACCUGUAUUAAAACCC (ssRNA, 2'-F all pyrimidines; 2'-OMe at a9,a10) [SEQ30(2)] here?
The activity was no less than 50 % inhibition.

Which activity does the source give for GGGAUAAAAAUAGAGUUUGAUAAACACCUGUAUUAAAACCC (ssRNA, 2'-F all pyrimidines; 2'-OMe at a35,a36) [SEQ30(3)] here?
Its activity is no less than 50 % inhibition.

B14 was tested. Which activity did it give?
Its activity is no less than 50 % inhibition.

Which activity does the source give for UGUGGAGCUGCUUAAACAAGCAAGUGAAAAAAACCACA (ssRNA, 2'-F all pyrimidines; 2'-OMe at g2,a38) [SEQ32(2)] here?
The activity was no less than 50 % inhibition.

UGUGGAGCUGCUUAAACAAGCAAGUGAAAAAAACCACA (ssRNA, 2'-F all pyrimidines; 2'-OMe at a30,a31) [SEQ32(3)] was tested. Which activity did it give?
The activity was no less than 50 % inhibition.

Which activity does the source give for B15 here?
The activity was no less than 50 % inhibition.

How did the activity turn out when GGGAAGCCUGUGGAGCUGCAGGAUGAAAAAAACCCAAA (ssRNA, 2'-F all pyrimidines; 2'-OMe at a36,a37,a38) [SEQ35(3)] was run?
The activity was no less than 50 % inhibition.

Target: T1, beta-NGF (nerve growth factor)
Assay: cell_activity; neurite outgrowth, Neuroscreen-1 cells
Details: tags: R&D Systems; chain copies: 2
Experimental: (§2) The neurite outgrowth inhibitory activity of aptamer was evaluated by using Neuroscreen-1 cell, which is a subclone of PC-12 cells. 2500 Cells per well were cultured for one day in an RPMI-1640 medium containing 2.5% horse serum and 1.25% fetal bovine serum in a 96 well flat-bottom plate coated with collagen type IV. A mixed solution of NGF (final concentration 15 ng/ml or 1.1 nM) prereacted in a serum-free RPMI-1640 medium at room temperature or 37° C. for 30 min to 1 hr and an aptamer (final concentration 500-3 nM) was added. Two or three days later, the cytoplasm and nuclei were stained using Cellomics Neurite Outgrowth Kits (manufactured by Thermo Scientific), and neurite length per cell was measured by Cellomics ArrayScan VTI (manufactured by Thermo Scientific). With the neurite length per cell obtained by culturing the cell for 2 days with the addition of NGF alone as inhibitory activity 0%, and that of the cell obtained by NGF free culture as inhibitory activity 100%, the inhibitory activity of the aptamer was calculated from the neurite length per cell obtained by culturing with the addition of NGF and the aptamer in mixture. […] When the inhibitory activity was 0% or below, ‘0%’ is indicated. When it was not less than 100%, ‘100%’ is indicated. The 50% inhibitory concentration was determined from the concentrations at two, above and below points sandwiching the 50% inhibitory activity.

For B10, which IC50 is on record?
The IC50 was 14.6 nM.

For B11, which IC50 is on record?
The IC50 was 20.7 nM.

How did the IC50 turn out when B12 was run?
Its IC50 is 22.2 nM.

Target: T1, beta-NGF (nerve growth factor)
Assay: cell_activity; 100 nM aptamer; parent 92.7%
Details: tags: R&D Systems human NGF; chain copies: 2
Experimental: as §2
Inverted dT is added to the 5′ and 3′ terminals. The activity was evaluated using Neuroscreen-1 cells in the same manner as in Example 8.

CGGAUAAAAAUAGAGUUUGAUAAACACCUGUAUUAAAACCG (ssRNA, as SEQ30(6) [as SEQ30(6) (positions not stated)]) [SEQ30(6) G1:C41 to C:G] was tested. Which activity did it give?
The activity was 92 % inhibition.

For GGGAUAAAAUUAGAGUUUGAUAAACACCUGUAAUAAAACCC (ssRNA, as SEQ30(6) [as SEQ30(6) (positions not stated)]) [SEQ30(6) A10:U33 to U:A], which activity is on record?
The activity was 80.8 % inhibition.

GGGAUAAAAAUUGAGUUUGAUAAACACCUGAAUUAAAACCC (ssRNA, as SEQ30(6) [as SEQ30(6) (positions not stated)]) [SEQ30(6) A12:U31 to U:A] was tested. Which activity did it give?
Its activity is 93.1 % inhibition.
